# Laboratory results from the DeepSol protein solubility set.
# Experiment: soluble on expression in E. coli; label from the status in PepcDB or PDB records
row,Sequence,soluble on expression in E. coli
1,MEVTNGLNLKDTELRLGLPGAQEEQQLELSCVRSNNKRKNNDSTEESAPPPAKTQIVGWPPVRSNRKNNNNKNVSYVKVSMDGAPYLRKIDLKMYKNYPELLKALENMFKFTVGEYSEREGYKGSGFVPTYEDKDGDWMLVGDVPWDMFSSSCQKLRIMKGSEAPTAL,not soluble
2,MIEPVLENVQPNSAASKAGLQAGDRIVKVDGQPLTQWVTFVMLVRDNPGKSLALEIERQGSPLSLTLIPESKPGNGKAIGFVGIEPKGKASPV,soluble
3,MEHKKSTDSRSCSQLSTSMDNIQRNLMLLEIEKNEKSSFDDVITGAESDNGWEDCLRETESVQSQWITEQSTIAYPETTRVNCDGPQSYYELADLNYKPAENTVRLARVPSQYQLDALSEIFVFDVPQHIAVKKVEASFLPKYVNTSSEVAQNSVNTTPYFVNSEYVSEMLCNEYSETY,not soluble
4,MKNPRHIAVIDIGKTNAKLALVDLQNHREIAVLTRPNTVLPGPPWRHFDTDGHWDFLLAALKVLHGEHGIDAISISTHGASVVLLDAQGDLAAPVLDYEHPIPADIAQAYDAIRPPFAQTGSARLANGLNVGAQLFYQFAQDPGLRDRTRHIVGYPQYWGHRLTGEFAWDVTSIGCHTDLWEPVTGRFSSLVDRLGIAEKLAPVRHCADVLGSILPEVAAATGLSADTPVTVGIHDSNASLYPHLLTQEAPFSVVSTGTWVVAMAVGSKVPGLDPTRDTLVNVNAMGQPVPSARFMGGREHEVIQAGQPCPPTPQDVAQVLADSVMILPAVEPASGPFQGRKMRWSGPEPAPGTGPRSAALSFYLALMTSTCLALIAARGVTIVEGPFAQNREFKSMLSVATGRAVLHSQSATGTSMGASLLFSSDRTPPLPQTNVSEEDAQAYRTYAKEWHQQITLEHHHHHH,not soluble
5,MGSDKIHHHHHHMALVRLSQIHFNFQTAAQPLFEDLNLTIAAGECHLIHGYTGCGKSTLLKLLQGILERPWEGEREIAEGATLGVVMQDPNVQLLRQTLGAEVAFALENLGVASSEMLLQVRSALRRVGLYISLDTPIASLSLGQRYRLMIAAQLVLEPDLLLLDEPWAQLDDQGVAELSAVLHQLKQQGVALLIVEHHRGVFKDLVTHRWQLSQGQLQALAPAECEATSEQVSWRESPAWPQGSAVIDSHGFTLAFRERQKLFDADSLLLFPGEIAALVGDNGCGKSTLLKSLAGIQADIDPLGIKVFGKKPKLGRFGADLALLHQRPSRQLFENTVIEEMQFSLKRFGLPLERAIELLGQLGLTTLARHSPHTLSYGQQHLIALASLACLRPKLLLLDDPFAGLDEHFTDKIVALLTELSRQGTALVIASHRPIAALPVDRLWRVVDGRLESLSASPQAYSRVG,not soluble
6,MSLVTIVAPMDEILERAHVVALPMRVKFRGIMVREAVLFDGPKGWGEFSPFVEYGVQEAAQWLRCGLEMAFQGPPPMIRDAVEVNATIPAVSPDQVPEILARYPGCTTVKVKVAEGDDAARVAMVREVLPDARIRVDANRGWTVDQAVAASKHLGELEYMEQPCASVAELAELRRRISVPIAADESIRRVSDPYEVARLHAADVAVVKAAPLGGPRNIVDIAKFYQQRGLSLTVASALDTGVGMNAGIAVAAAIDSNPAGLATQRLFVEDVTEPRTIVDGKMSVEMLAPDPARLAEFEVTGPRRDWWLDRVRGALECLHDFIPEGHHHHHH,not soluble
7,MGSDKIHHHHHHMAKLYFYYSTMNAGKSTTLLQSDYNYRERNMNTLVYTAAIDDRFGKGKVSSRIGIHRQANLFHKDTDLFTEIALHIKQQKLHCILIDEAQFLTKAQVYQLSNVVDELNIPVLCYGLRTDFQAELFEGSKYLLAWADQLEELKTICYCGRKANFVLRLNEQGKAVKDGEQIQIGGNDSYMSVCRKHYKEILYSSNE,not soluble
8,MMTQGPNLIGIHTNTKENEETQKFVNWFLNTSLTWDNNESKTPAQYFTESASYILPLKETFTGSNNKGQSGKNDGKNSNNTFKAKALELFKEQSENKIVGYSDPSDFRGGKFRESIGSAFNATVNSHVDFNTFVANFRANLGSGYDK,soluble
9,GKSPEAECNKITEEPKCSEEKICSWHKEVKAGEKNCQFNSTKASKS,soluble
10,MTNVLIEDLKWRGLIYQQTDEQGIEDLLNKEQVTLYCGADPTADSLHIGHLLPFLTLRRFQEHGHRPIVLIGGGTGMIGDPSGKSEERVLQTEEQVDKNIEGISKQMHNIFEFGTDHGAVLVNNRDWLGQISLISFLRDYGKHVGVNYMLGKDSIQSRLEHGISYTEFTYTILQAIDFGHLNRELNCKIQVGGSDQWGNITSGIELMRRMYGQTDAYGLTIPLVTKSDGKKFGKSESGAVWLDAEKTSPYEFYQFWINQSDEDVIKFLKYFTFLGKEEIDRLEQSKNEAPHLREAQKTLAEEVTKFIHGEDALNDAIRISQALFSGDLKSLSAKELKDGFKDVPQVTLSNDTTNIVEVLIETGISPSKRQAREDVNNGAIYINGERQQDVNYALAPEDKIDGEFTIIRRGKKKYFMVNYQ,soluble
11,MDVKHNPKKEVIERSLNATEKAIESIREGDLVRRHTVLELRDMQISMSEDFDQIRGMMHELDHQIDKERAENSKWMNRKMEKAKATADQALASTLMVKDVQLLEKKVNILKDSVIQVNKAFYKYEKDVDMKDLMDQVTDMVHRTEKKEQDALEPHATDEQAIEKAFRGAIEGLYGLKSSNPKVMEEAKLLAGEMRVFRDAAANKNFHSMISKVAPGKSGVSLDSSSSESSFSTSASSSLAKPNGKSSSSAASSISGSH,not soluble
12,MGSDKIHHHHHHMKFNEFLNNLSNYEPGKDIEVIAKEYGVKEVIKLASNENPFGTPPKAIECLRQNANKAHLYPDDSMIELKSTLAQKYKVQNENIIIGAGSDQVIEFAIHSKLNSKNAFLQAGVTFAMYEIYAKQCGAKCYKTQSITHNLDEFKKLYETHKDEIKLIFLCLPNNPLGECLDASEATEFIKGVNEDCLVVIDAAYNEFASFKDSKKHLEPCELIKEFDNVLYLGTFSKLYGLGGLRIGYGIANANIISAFYKLRAPFNVSNLALKAAVAAMDDDEFTEKTLENNFSQMELYKEFAKKHNIKIIDSYTNFITYFFDEKNSTDLSEKLLKKGIIIRNLKSYGLNAIRITIGTSYENEKFFTEFDKILR,not soluble
13,MGSDKIHHHHHHMSDVYDYLKESLPGDHSRQATAEAVLQARVAKGFAPAKVLDFGCGDGRSIDLFRRMLPQVDWTGVDIEASPEVASRRRQDGRFVTYDGYELPFPDRSFPLVYSHQVLEHVRKPELALREIARVLEPDGLFIGQTSQFEPYHSYSLWNFTVYGFKRIVEDAGMQLAELRPGIDGFTLMRRTYEGRPPEMSKYFSQESPINEEIEKAAGDKRTQVRNFRKLLFCGQFIFVVQLR,not soluble
14,AVVITDRQNRIIKVNNEFTRLSGYTFEDVKGKQPSIFASGLHKVEFYMQMWKALQDNGVWEGEVINKRKDGESITEILRIQSIRDEDNVIQFYVASFVDIS,not soluble
15,MLSALLIAKRYSSKEDTMPHLFPDLPYAYDALEPYIDTKTMEVHYSKHHRTYYDKFLSAIKGTEHEDRPLSEIFARVSTLPAAVRNHGGGYYNHIVYWNCMKPNAGGEPQGELAAEIERQFGSFAQFKEAFSQAAVNTFGSGFVWLIVQQGQLSITSTSNQDNPLMDVVAVRGEPILALDVWEHAYYIRYQNRRPEYIDAWWNVVNWEAVSENYAIALTQAA,not soluble
16,MRGVVFLHAFPYSPRMWEGEVALLKTRLPVLAPHYLGLSLGKAAEKVLGEMDEAGLEQAVFVGLSMGGYLVFELFRKAPERFLGTVLSSTRAGPDSEEAKRNRYALRERVLKDGVGFLPEALLPSHLGRTTQATKPEVVEKVRAIILEASPEAVAETLVALAERPDSTPLLSRMQVPALVLVGEEDTLTPPEEARRMWKALPDARMLILPETGHLANLENPKAFRTALLGFLAEFF,soluble
17,SLDRGEQGLLKTEPVAEEGEDAVTMLSAPEALTEEEQEELRRELTKVEEEIQTLSQVLAAKEKHLAELKRKLGISSLQEFKQNIAKGWQDVTATNAYKKTSETLSQAGQKASAAFSSVGSVITKKLEDVKNSPTFKSFEEKVENLKSKVGGAKPAGGDFGEVLNSTANATSTMTTEPPPEQMTES,soluble
18,MRIFLLFLFFVLFTFGVEGYVIEEINGSTGLRIHKEIKRKVYITEDALITETEKEFMVQKIENGLPRIYRVIKSSKSYMDFSKMTPLFLVSLPFLDCKQRVCVVNRGAFRPTNEYKKIRGFKARKVVVESHALGKKTTLIQWYTKEWKELVEANRLEDKFYVNFIRAIMKEKNLSEANIPLKEIQNFLKEINEKFGGVVRTQQQMPLFNTYSEVISVKKTEIPDYIYKLPEGYTKIK,not soluble
19,MDWTRRLRLQHLQLLVSLMETGNLSGTARAAHTTQPGLSKWLKELEEDVGAPLFERHARGLRPTPYGMTLFNHAQRVLTEMERARQNLEAMRSGSGSRVLLGTSPASAPSLVPRALRAFLGRYPGAQVELLEGTMNGLLERLEKRQLDVVVGRLDNYAPRASLRCEVLYSEAIVVMARPGHPLAQAAALDWEDVRRYDWIVWPPGSPIRSKLDMALTQGGRQPPAYRLESSSMLANIELLRGSDMLSIGSARVVEHLAGLGLVARLALEIPGEGAVGMCWRDEPHRDRASEDLLACLREGAAAE,not soluble
20,ANIQSFSFKNFNSPSFILQGDATVSSGKLQLTKVKENGIPTPSSLGRAFYSSPIQIYDKSTGAVASWATSFTVKISAPSKASFADGIAFALVPVGSEPRRNGGYLGVFDSDVYNNSAQTVAVEFDTLSNSGWDPSMKHIGIDVNSIKSIATVSWDLANGENAEILITYNAATSLLVASLVHPSRRTSYILSERVDITNELPEYVSVGFSATTGLSEGYIETHDVLSWSFASKLPDDSTAEPLDLASYLVRNVL,soluble
21,MGSDKIHHHHHHVAVKAYLKRELRNLQSLAPAVRTAKFSLYNFGTRSAGLFVEPEFKLLAHLRPVKLAIDIGGNWGQSVLALQRYAAPERIVTFEPNPELYRRLSARFRSDPSIQVENVGLGDAAGQFDLHIPLYRNFVYDGLASLNKDEAAQWLNPRTMARFDPSKLTIQSHTVRVVKLDDYNLVPDIIKIDVQGLEDAVARGGIKTIDRAKPAMIVEAPSASFVQMMADCGLRPYTWNGTRLVDAADGSNVMFLSDEKLRKLVKVRPKPEKPE,not soluble
22,MEVFVFTPKGDLYKMPKGATVLDFAFAIHSKLGSKCIGAKVNGKNAQLKQTLNSGLEHHHHHH,not soluble
23,MGSDKIHHHHHHMALIRINFMAASLHRTVPLMVCLPTDKLVPDEQGVPRPIQGPFATLYLLHGILGSEVDWISGTRIQRWADERNLAVVMPAGENSFYTDHPWSGETYSQFIGQELIDFTRRTFPLSHQRDQTFIGGLSMGGYGALYNGLKFHDIFGAIVSLSAGLNVRPGMEKLPAKPQWFAETAAYQHGVFGPDLAAAGHSELNPQVLVTKLLAAHVALPAIFMAIGDQDGLKPANDEFDHFLTAKKVSHEYVVGSGAHEWDFWDRYLLKALNWLPLTNQGAGVNSGHIKAN,not soluble
24,MGEVQREKVAVIIGPTAVGKTKLSIDLAKALNGEIISGDSMQIYRTMDIGTAKVTKAEMDGIPHYMIDIKNPEDSFSVAEFQERVRKHIREITERGKLPIIVGGTGLYIQSVLFDYQFTDDAGDVIYREQREKLALERGVEYVHEKLQEVDPESAERIHANNVRRVIRALEIFHTTGEKMSEQIEKQEKELLYDVSLIGLTMDREMLYDRINLRVDLMMEQGLLEEVEGLYNRGIRDCQSIQAIGYKEIYDYFENRASLEDAVSQLKTNSRRYAKRQLTWFRNKMDVTWFDVTDGEKTSEILRYIEGKLQVKSNNSK,not soluble
